From the Human Domainome abundance scans (Beltran et al. 2025) come the findings set out here.

To fix the notation:
B1: Glucocorticoid receptor, residues 419 to 494; numbered along this chain, P04150 (parent)
chain: KLCLVCSDEASGCHYGVLTCGSCKVFFKRAVEGQHNYLCAGRNDCIIDKIRRKNCPACRYRKCLQAGMNLEARKTK

± gives the uncertainty stated by the source.

Variants of B1 are the subject of the data set. Nature of the data set: abundance fitness (aPCA) (normalised: wild type 0, dead -1); higher = more abundant; growth selection in yeast, the domain comes from the species named. Particulars: Homo sapiens.
Take KLCLVCSDEASGCHYGVLTCGSCKVFFKRAVEGQHNYLCAGRNDCIIDKIRRKNCPACRYRKCLGAGMNLEARKTK [Q65G]: the abundance fitness is -0.06 ± 0.039.

For KLCLVCSDEASGCHYGVLTCGSCKVFFKRAVEGQHNYLCAGRNDCIIDKIRRKNCPACRYRKCLTAGMNLEARKTK [Q65T], the abundance fitness was -0.086 ± 0.042.

On to KLCLVCSDEASGCHYGVLTCGSCKVFFKRAVEGQHNYLCAGRNDCIIDKIRRKNCPACRYRKCLSAGMNLEARKTK [Q65S], for which the abundance fitness is -0.009 ± 0.038.

With KLCLVCSDEASGCHYGVLTCGSCKVFFKRAVEGQHNYLCAGRNDCIIDKIRRKNCPACRYRKCLLAGMNLEARKTK [Q65L], the abundance fitness was -0.035 ± 0.035.

Turning to KLCLVCSDEASGCHYGVLTCGSCKVFFKRAVEGQHNYLCAGRNDCIIDKIRRKNCPACRYRKCLDAGMNLEARKTK [Q65D], the abundance fitness was 0.045 ± 0.071.

For KLCLVCSDEASGCHYGVLTCGSCKVFFKRAVEGQHNYLCAGRNDCIIDKIRRKNCPACRYRKCLMAGMNLEARKTK [Q65M], the abundance fitness is -0.057 ± 0.043.

For KLCLVCSDEASGCHYGVLTCGSCKVFFKRAVEGQHNYLCAGRNDCIIDKIRRKNCPACRYRKCLYAGMNLEARKTK [Q65Y], the abundance fitness was -0.09 ± 0.066.

In the case of KLCLVCSDEASGCHYGVLTCGSCKVFFKRAVEGQHNYLCAGRNDCIIDKIRRKNCPACRYRKCLKAGMNLEARKTK [Q65K], the abundance fitness was -0.052 ± 0.045.

With KLCLVCSDEASGCHYGVLTCGSCKVFFKRAVEGQHNYLCAGRNDCIIDKIRRKNCPACRYRKCLWAGMNLEARKTK [Q65W], the abundance fitness is -0.063 ± 0.042.

With KLCLVCSDEASGCHYGVLTCGSCKVFFKRAVEGQHNYLCAGRNDCIIDKIRRKNCPACRYRKCLPAGMNLEARKTK [Q65P], the abundance fitness was -0.567 ± 0.079.

On to KLCLVCSDEASGCHYGVLTCGSCKVFFKRAVEGQHNYLCAGRNDCIIDKIRRKNCPACRYRKCLVAGMNLEARKTK [Q65V], for which the abundance fitness is -0.029 ± 0.038.

KLCLVCSDEASGCHYGVLTCGSCKVFFKRAVEGQHNYLCAGRNDCIIDKIRRKNCPACRYRKCLNAGMNLEARKTK [Q65N]: the abundance fitness is -0.071 ± 0.073.

Turning to KLCLVCSDEASGCHYGVLTCGSCKVFFKRAVEGQHNYLCAGRNDCIIDKIRRKNCPACRYRKCLEAGMNLEARKTK [Q65E], the abundance fitness was -0.06 ± 0.061.

As for KLCLVCSDEASGCHYGVLTCGSCKVFFKRAVEGQHNYLCAGRNDCIIDKIRRKNCPACRYRKCLRAGMNLEARKTK [Q65R], the abundance fitness was -0.053 ± 0.031.

In the case of KLCLVCSDEASGCHYGVLTCGSCKVFFKRAVEGQHNYLCAGRNDCIIDKIRRKNCPACRYRKCLFAGMNLEARKTK [Q65F], the abundance fitness was -0.045 ± 0.065.

As for KLCLVCSDEASGCHYGVLTCGSCKVFFKRAVEGQHNYLCAGRNDCIIDKIRRKNCPACRYRKCLAAGMNLEARKTK [Q65A], the abundance fitness was -0.019 ± 0.038.

Consider KLCLVCSDEASGCHYGVLTCGSCKVFFKRAVEGQHNYLCAGRNDCIIDKIRRKNCPACRYRKCLHAGMNLEARKTK [Q65H], for which the abundance fitness stood at 0.09 ± 0.062.

In the case of KLCLVCSDEASGCHYGVLTCGSCKVFFKRAVEGQHNYLCAGRNDCIIDKIRRKNCPACRYRKCLCAGMNLEARKTK [Q65C], the abundance fitness was -0.111 ± 0.05.

As to KLCLVCSDEASGCHYGVLTCGSCKVFFKRAVEGQHNYLCAGRNDCIIDKIRRKNCPACRYRKCLQAGINLEARKTK [M68I], the abundance fitness is -0.422 ± 0.17.

For KLCLVCSDEASGCHYGVLTCGSCKVFFKRAVEGQHNYLCAGRNDCIIDKIRRKNCPACRYRKCLQAGQNLEARKTK [M68Q], the abundance fitness was -0.999 ± 0.18.

With KLCLVCSDEASGCHYGVLTCGSCKVFFKRAVEGQHNYLCAGRNDCIIDKIRRKNCPACRYRKCLQAGSNLEARKTK [M68S], the abundance fitness is -0.771 ± 0.092.

In the case of KLCLVCSDEASGCHYGVLTCGSCKVFFKRAVEGQHNYLCAGRNDCIIDKIRRKNCPACRYRKCLQAGRNLEARKTK [M68R], the abundance fitness was -0.719 ± 0.059.

Regarding KLCLVCSDEASGCHYGVLTCGSCKVFFKRAVEGQHNYLCAGRNDCIIDKIRRKNCPACRYRKCLQAGDNLEARKTK [M68D], the abundance fitness is -0.768 ± 0.18.

Consider KLCLVCSDEASGCHYGVLTCGSCKVFFKRAVEGQHNYLCAGRNDCIIDKIRRKNCPACRYRKCLQAGCNLEARKTK [M68C], for which the abundance fitness is -0.12 ± 0.06.

Turning to KLCLVCSDEASGCHYGVLTCGSCKVFFKRAVEGQHNYLCAGRNDCIIDKIRRKNCPACRYRKCLQAGPNLEARKTK [M68P], the abundance fitness was -0.928 ± 0.14.

Turning to KLCLVCSDEASGCHYGVLTCGSCKVFFKRAVEGQHNYLCAGRNDCIIDKIRRKNCPACRYRKCLQAGNNLEARKTK [M68N], the abundance fitness is -0.62 ± 0.45.

For the variant KLCLVCSDEASGCHYGVLTCGSCKVFFKRAVEGQHNYLCAGRNDCIIDKIRRKNCPACRYRKCLQAGKNLEARKTK [M68K], the abundance fitness is -0.632 ± 0.16.

In the case of KLCLVCSDEASGCHYGVLTCGSCKVFFKRAVEGQHNYLCAGRNDCIIDKIRRKNCPACRYRKCLQAGENLEARKTK [M68E], the abundance fitness was -0.529 ± 0.086.

Consider KLCLVCSDEASGCHYGVLTCGSCKVFFKRAVEGQHNYLCAGRNDCIIDKIRRKNCPACRYRKCLQAGANLEARKTK [M68A], for which the abundance fitness is -0.377 ± 0.06.

KLCLVCSDEASGCHYGVLTCGSCKVFFKRAVEGQHNYLCAGRNDCIIDKIRRKNCPACRYRKCLQAGGNLEARKTK [M68G]: the abundance fitness was -0.574 ± 0.055.

In the case of KLCLVCSDEASGCHYGVLTCGSCKVFFKRAVEGQHNYLCAGRNDCIIDKIRRKNCPACRYRKCLQAGFNLEARKTK [M68F], the abundance fitness is -0.076 ± 0.065.

Regarding KLCLVCSDEASGCHYGVLTCGSCKVFFKRAVEGQHNYLCAGRNDCIIDKIRRKNCPACRYRKCLQAGHNLEARKTK [M68H], the abundance fitness is -0.551 ± 0.15.

With KLCLVCSDEASGCHYGVLTCGSCKVFFKRAVEGQHNYLCAGRNDCIIDKIRRKNCPACRYRKCLQAGLNLEARKTK [M68L], the abundance fitness is -0.133 ± 0.035.

Turning to KLCLVCSDEASGCHYGVLTCGSCKVFFKRAVEGQHNYLCAGRNDCIIDKIRRKNCPACRYRKCWQAGMNLEARKTK [L64W], the abundance fitness was -0.031 ± 0.038.

For KLCLVCSDEASGCHYGVLTCGSCKVFFKRAVEGQHNYLCAGRNDCIIDKIRRKNCPACRYRKCTQAGMNLEARKTK [L64T], the abundance fitness was -0.074 ± 0.04.

Regarding KLCLVCSDEASGCHYGVLTCGSCKVFFKRAVEGQHNYLCAGRNDCIIDKIRRKNCPACRYRKCSQAGMNLEARKTK [L64S], the abundance fitness is -0.082 ± 0.04.
